From publication doi:10.1101/613059

Molecular target: T1, Elav (Drosophila melanogaster (w1118), UniProt P16914 1-483)
T1 sequence: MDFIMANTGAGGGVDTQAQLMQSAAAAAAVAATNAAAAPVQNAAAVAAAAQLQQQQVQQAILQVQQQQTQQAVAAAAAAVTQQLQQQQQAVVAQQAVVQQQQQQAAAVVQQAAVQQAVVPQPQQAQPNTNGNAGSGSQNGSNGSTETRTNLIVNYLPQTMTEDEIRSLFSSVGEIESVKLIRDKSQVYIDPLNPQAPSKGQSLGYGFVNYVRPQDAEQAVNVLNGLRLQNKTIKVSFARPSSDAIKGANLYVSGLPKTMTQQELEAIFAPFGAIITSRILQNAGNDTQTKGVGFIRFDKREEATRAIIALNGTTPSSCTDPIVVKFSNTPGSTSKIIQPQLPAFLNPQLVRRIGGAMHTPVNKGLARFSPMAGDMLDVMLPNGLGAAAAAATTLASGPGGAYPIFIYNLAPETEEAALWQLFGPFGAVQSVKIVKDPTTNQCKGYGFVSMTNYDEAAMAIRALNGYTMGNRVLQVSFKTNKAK
Test: EMSA

## UGUGUAAGUGAGUACGGUCGCUGUGGUGUGAUGAUGGGUGUGG (ssRNA, U to G substitutions disrupting U-rich stretches) [Dscam1 EBS mutant probe]
  binding result: no binding
